Data as given in the DeepSol protein solubility set.

Test: soluble on expression in E. coli; label from the status in PepcDB or PDB records

| Sequence | soluble on expression in E. coli |
| --- | --- |
| MGSDKIHHHHHHMRTALLEVGLEELPASEFHSILKQLEEKSAELLKAYRVSSGSVEVFVGSRRFGVILKNLPERQEDFTEEKKGPPLNVAYDENGKPTRALEGFLRNNNASLENVVHREGYVYLSRVVEGKPVEEVLPDLFRDLVLGLNFRKPMRWGSGEHEYIRPVHWIVAMVDGRVLDLEIFGLRSSRISYGKRYHAGSIEIPDSERYYESLKKGFVISSHLERKKFVLEQIDEFEKRSSMKIERDEELIEEIVAITEYPRIVVGQFDRKYLELPEEIIVTAVKHHQRSFIAHKGTLTNTFVAFQDGPQPPENVVKGYERVINARLEDARYYFQKDLETPLEKMNEKLKEIVFQEKLGTLYDKVERIKKISQRLCEDLKLPGSFTQKVLEAASICKADIASKVVYEFPELQGVMGRIYALREGINEEIATAIEDHYSEEPQTVIGSILGIADRIDTIVGNFAIGNVPTSSKDPYGLKSKADTIFRIIRKNEWDISLEELLTFASSLVGYRLSEELETFFAGRFYQFLINELGISFDVARAVNHLWKKPLRGILSAEALQEISEKPEFQDLFVGFERVHNITKNHDSTKFDGALFEKEEEKKLMNKFYEVKEKVLKALERLNYREALQYLIELKPYIDEYFDNVFVMVKRDDLRVNRLSFLKNIDELFMMVGDMTYLVKRSQV | not soluble |
| MGSDKIHHHHHHMRVEDILDQLVMQSRDQDGAKYYISLINDMRIDRSVDPVKSIILEILSLCSDGRIDPWDVDLLKFAEIMNSFFGNSFIDFQFAGKAIADAWRVLRIKSDMSPKEQDRQMNDIGCEEPEDTDNFIPQNQVVIQLVPSVLTPQSRPVVLVDLIDEIRRKMYSSRLQKKKVDVHIEFDSSKLNPDRSEEMIEKTYRAIIESGKQKVFMSEIWGNTRRERAVFFLYSMFLFRDGRISLSQEEPNGDILIETNVI | not soluble |
| MGSDKIHHHHHHMRVEIIFLGCGGGRWATITQKKATGGFRIHTNELRMHVDPGPGAIVRLNELKISPWRTNALFISHCHPDHYTDGEIIVEAITQGMTKKRGVFLGSLSVVEGFGEYEYVVSKYHQSKLEEVRVLYPGDSAELYDTTIKATHTKHGDPFGIGFRLSTIYGDIGYTSDTEFIPQLIEDFDGVRILIANIVRKKNERIKGHLCSNDAIDLINSMNKKPELLIMNHMGVKMTNPQIEAEYISQNTGIEVIPARLGLKVELLNGKYKYQLIK | not soluble |
| MGSDKIHHHHHHMRVLGLILAGGKSDRLWPLTKVRASAAVPVFGKYRAIDFTLSNMVNSGIRKVGILTQYNPRSLMDHLGSGKEWDLDRKSGGLFILQPYVGPNREVWYRGTADAIFQNMTILRRGEEDHVLIGSGDHIYKMIYRDLFNYHLKKGADITLVVKELDETYNLSEYGIVQLDDDMRVVEIEEKPAHPKGNIAFLGVYFMNKELLKELLYATVPQGKYDLLLDIVIPNLDRLKVYAYRFDGYWRNVKKGIKEYYRINMDILKKEVRDELFYRNGKVYTKLKDLPPPKFTTTAVVENSLIADGSIVSGTVRNSVIFRNVRIKVGAVVENSIIMENTVVEEGAVLRNVILDKNCIVREGRVIEGDTELPVFEKRAVL | not soluble |
| MGSDKIHHHHHHMRVLHFYKTYLSETVGGIEQVIFQLCESSGSWGIDNHVLTLSSDPHPPVVPFGGHVVHRARLDLQLASTGFSLSVFKQFRELAAEADVVNYHFPWPFMDLVHFLTGMNKPSVVTYHSDIIRQRVLLKLYRPLMSRFLHSVDRIVAASPNYFSTSDVLRQYREKTRVITYGLDKDGYPKPATQRLEHWREKLGPRFFLFVGVMRYYKGLHILLDALQGTDYPVVIVGAGPLQAELYAQAAALGLRNVHFLGRVDDEDKVALLQLSYAMVFPSHLRSEAFGISLLEGAMYGKPMISSEIGTGTSYINIHGETGLVVPPSQPAAFRQAMRWLWEHPQQAEEMGRNAEARYRQLFTAEEMGRRWSELYRELLEEKASSRYVKAAR | not soluble |
| MGSDKIHHHHHHMRVLVKLSGEALSGEGGRGFDPERVNYIVNEIKSAIEEGFKIGIVVGAGNLFRGVELKNLTMTRADQIGLLGTVMNSVYLKDIFERSGLKARIYSQIVNLPDVERVNYDSIESALRENSILIFAGGTSNPFFTTDTAAVLRAQEMRAKLVVKATKVDGVYDKDPKKFPDAKKIPHLTFSEAMKMGLKVMDAEAFALCKKLGITVKVINFFEPGTLLKALKGEDVGSTVVPD | not soluble |
| MGSDKIHHHHHHMRVMAFVQARMGSTRLPGKSLMPVWNGMGVLEMTLRRALRARTLSGVVLCTSTDPACDALETLASGLGVQAFRGPEDDVLTRYALATERFEPDAVVRICADSPLVCPEGIDALVAFFRDEGLDYAAHAMDGTGLPDGLGCEVFTAAALAQAHAEATAPEDREHVSLFIRHRPERFRQATLAADAALRAPGVSLDVDTQDDLDALRRFIMALPPSEGPFWSADAIAPLARGLHTPPQGTSMDIASDDYHDFFIRDGKLIGEFEQMYRKSRHAPWHQDEACDKWFNKVSAALVGHALDDPSVRTVFEVGSGLGYFLSQFAGEGRTLTGTDVSATAVEKARALFPGISFEVDDIRFEGRRGPYDLCLMQAVCWCIFPHMDDVVRNVTATVRPGGYLFLGECFQPLDGPFAGKDVIPTPDALIGHFSHAFDTVADVRVTRGEMGGGPIIYWLGRRRG | not soluble |
| MGSDKIHHHHHHMRYHIALVGRRNSGKSSLLNMLAGQQISIVSDIKGTTTDAVAKAYELQPLGPVTFYDTAGIDDEGTLGAMRVSATRRVLFRSDMALLVVDEQGLCPSDMALIDEIRQLQMPILMVFNKADICTPKAEDIAFCQNQSLPFIVVSAATGLAGKQLKQLMVELAPAEYKQEPLLAGDLYQAGDVILCVVPIDMAAPKGRLILPQVQILREALDRSAIAMVVKETELAQALSVVTPKLVISDAQAIKQVAAIVPDAVPLTTFSTLFARFKGDLAALATGADALDTLQDGDKVLISEACSHNVQEDDIGRVKLPRWINSYTGKQLEFVVTSGHDFPNDLEQYALVIHCGACMFNRNEMLRRIRECQRRQVPITNYGVAISKLQGVLPRVLTPFNRNPQQ | not soluble |
| MGSDKIHHHHHHMSAEPIIQVENLSKMYRLGLKNEIHDSIAEAAVSWLKTPVKNYRNLKSLNTFGVPVDEDDPGVLWALRDVSFEVAEGEVLGIIGRNGAGKSTLLKVLSRITEPTRGRVIINGRVASLLEVGTGFHPDLTGRENVFMNGSILGMRKGEIAAKFDEIVDFAGLDRFIDTPIKRYSSGMVMRLAFSVAAHLEPEILIIDEVLAVGDAAFQKKCLDKMHKVASGGRTVLFVSHQLNSVSALCGRVMHMDSGRIIKNGDTRQVIDHYLTSAGFGVTTALHDRKDRCGAGHVRFVNSWIEDMQGNRLASAVSGEPVRIALEYQSHAEESFSDVKVYLRLYSMLNKPAGLFSNVYTEERIDISAGENGVLYCTVPRMMLNGGRYFFHLKLEAQGRQLDHIENAGYMEVEAGNVYANGKMPNDQWVYLHDYGWSGEPLHKG | not soluble |
| MGSDKIHHHHHHMSAIPQAARKRGRPVKGESATLRDELILKSAKLFRTQGYERTTVRDIAAAAGVQAGSWFYYFKTKQDILVAVMEQGMSNALARIEALDVEHLPARDAFRALVHTHLHTLVSPDHDFIPVLLYEWKSLDEAMQAKVLKLKDRYEAVWDGVIERLQAAGEWPAPTPIDRLLMFGALNWVAQWYKPDGALGLDALAEHAVRFLLRTAETPAPAPAGTAKRRRGVKAS | not soluble |
| MGSDKIHHHHHHMSAPDSAPGTERGHERTHFAVVGDSQDPAQATAPRAPAESITLIGIGTDGFEGLGLKAQQALQRASVVIGSWRQLNLVPDAIKAERRPWPGNTKHPDLDALFKEFLGRHVAVLASGDPLFYGVGTAMVHVLGMDRLTVIPGPSSASLACARLGWTVNRTRVVYLGQEPIETLIPIIESGAQFLVLGKDEFSTAQVATLLNELGLGETPLTVLSDLGSTDEEITQGTASHPPAAVSVLNVIAVGARTAMPKPHFEGDVSNEDLRALTVAALEPTQGQMLWTFGDIGAALACDWLRAAGNKAHAISFASMVEQSQRNARKLGVSTLSVKETLSPKTLKDIRYVQGPESASPHAIFMNKGLGIDLVPETAWMMLRPGGKLIAQASTEDNIAKLHTLQEQHGGIIKHIRIDDTDVHQWRVTKPVTPEAVN | not soluble |
| MGSDKIHHHHHHMSAPRSICLLRLSAIGDTCNAAAVVNAIRQHYPEAEITWVIGKAEAALMAGMDGVNFVVFDKKRGMAAYRNLRRQLQGKRFDALLLMQVALRANLASLCISAKRRIGYDKAKSKELHSLFINERIEPTDKVHVLDNFRQFQKSLGIPLEEPDWNIPVNAEDRGWAKAQLDPNTSKHLIITAAASNTERNWLPDRYAAVADYAASQGFSVYLCGGPADYEKQLAANIQAHAKHSLHNLVGQSSLKQLFALIGEASLVLAPDTGPAHMAVAAGTPVIGLYAHSNPKRTGPYLWQNYVVDAYTPALKQTRGETPEQSRWGQRLKGAELMENITTEQVIDMLDRCIQEQNL | not soluble |
| MGSDKIHHHHHHMSASSQSPKGDGLLQTISVKILKRVGKEEVAYVYLGETSRGNLVEFVESIQPPVPREKKWVLIVSTLAGCPVGCLMCDAGGFYRGKLSADEIFEQIDFLVKSRYPNGRIPSEKFKIQFARMGEPALNEAVLDVLKELPARYEAPGLMPSISTVAPCGTDSFFEDLLKIKEKHYRGKFQLQFSIHSTDEKERDQIIPVKKWSLEKISEFGKRFVKENDRKITLNFAVAQEYSLDPKVIIRVFDPEKFLVKITPVNPTYRSKENNLNSDVDVERKELLKHRNFIEELKKAGFEVILSIGELEENKIGSNCGQYVQRHLMSERKIVDGYQYV | not soluble |
| MGSDKIHHHHHHMSDAKLQSVLSSLSQVARQLDALPSDTPAPDSSWVKLNTNENPFPLPEIIMQSAIAALERQYLYPEDDNISLREAAANAYSVSMDQVIAGNGSSELLGLVYRAFLTPGDSVAMMSPGFSFNRKLATLQGAQFVEIEFSKDHSLPMEQLLFGPAKDAKFILLANPNNPTGTFVPVADIERLVAKSDRLIVLDEAYVDFAPENGLRLINRYSNLLVLRTFSKSYAAAGVRVGFGFGHPEIIGRLRNIQNVFNMNVIGQAVGISVLAHRAAYADNHRHIRHERRRVTLALSQLGFSVIPSHANFLLARVPTAQDGSWWQSAFARQKILVAVFPDKGLENYIRVSIGTKEQMDAFLRAASRISRILNMSTPPR | not soluble |
| MGSDKIHHHHHHMSELKLPKDDRSIEVYRLSGTPVAVEKRSAADFNRVAFAAAHVVADPFADNDPWLTPAIDWEATLRFRHRLWDLGLGVAEAMDTAQRGMGLAWPQAQELISRSLKEAASRKDALIACGVGTDHLDSGGYDLNQIIDSYLEQLDFVQGEGGRVILMASRALAAAARSPDDYLKAYARVLSRAEQKVVIHWLGEMFDPALKGYWGSGDHMAAMETCLAMIEENAEKIDGIKISLLSKDKEIVMRRRLPAGVRMYTGDDFNYAELIAGDEQGHSDALLGIFDAIAPAASKALASLKRGADNEFFDILEPTVALSRHIFKAPTRFYKTGVVFLAYLNGLQDHFTMVGGQESTRSTQHFTELFRLADKANVLAEPDLATHRMKAFLAVRGIG | not soluble |
| MGSDKIHHHHHHMSENHWENQPGTPPDVTPECGQESDGERLYLWRQIVHWRSGTGGSQCNPLIELDKQNHWSVMNGGATGASGWLLVPTDRKKGIECRDIWTHRDPNYWNAAWGYVRSPYGSPTTTGLGINSKDKRTQDQLHIHIATFQSDAKTYLDARSPSEIATTPGDWAKKLLTVPSDSKPGQVYRVLHVKDLATDNLFNLLQSNVVSSDQMGNQTMIVIPAKSGGFYVLNSDISLSQGAAFGTGTCNHLLKCS | not soluble |
| MGSDKIHHHHHHMSEQNWTDTGRFDNKAAEWDANAIRAALADAVARAIIAHMPVGKPANALEFGCGTGLVTTRIAPHCLQLTAVDSSREMLRMLGEKIAASAIANVTPLHLDFSRPEEAAGLDRDYDFVYSSMTLHHIPDTASFLRELIGHMSPGGALAIADLDAEDGLFHNDATEKVHHGFDRTELQALLESAGFAGVSFMTAHIIEKKNREGNLKNYPVFLVTAVKPKA | not soluble |
